Measurements: US8313920B2, “High-throughput assay for evaluating dipeptidyl peptidase I activity” (Janssen Research & Development, LLC, priority 2008, dated 2012)

Substrate: CC[C@H](C)[C@H](NC(=O)[C@H](CCC(=O)O)NC(=O)CN)C(=O)N[C@H](C(=O)NCC(=O)NCC(=O)N[C@H](C(=O)N[C@@H](CCC(=O)O)C(=O)N[C@@H](CS)C(=O)N[C@@H](CCCCN)C(=O)N1CCC[C@H]1C(=O)N[C@@H](Cc1c[nH]cn1)C(=O)N[C@@H](CO)C(=O)N[C@@H](CCCNC(=N)N)C(=O)N1CCC[C@H]1C(=O)N[C@@H](Cc1ccc(O)cc1)C(=O)N[C@@H](CCSC)C(=O)N[C@@H](C)C(=O)N[C@@H](Cc1ccc(O)cc1)C(=O)N[C@@H](CC(C)C)C(=O)O)[C@@H](C)O)[C@@H](C)CC
Test: Initial velocity analysis of DPPI with the 20-mer substrate, mass spectrometry
Type: biochemical, human
Details: other: 20-mer as DPPI substrate, about 2 nM DPPI, pH 7.0, about 27° C.
Description: FIG. 1. Initial velocity analysis for DPP1 kinetic constant in reaction with a 20-mer substrate (A) and a dipeptide substrate (B). (A) About 2 nM of DPPI was used in the reaction with the 20-mer substrate of […] (SEQ ID NO:1) and the reaction was monitored using a mass spectrometry system. (B) About 0.4 nM of DPP1 was used in the reaction with the dipeptide substrate of GR-α-methylcoumarin and the reaction was monitored using a rate-based format monitoring fluorescence at EM=460 nm and EX=380 nm. Initial rates are taken from kinetic data where less than 7% substrate turnover was achieved.
Once the rate of the substrate turnover under the initial velocity condition, the kinetic constants for DPPI and the peptide substrate are calculated using the following formula (I): Y=VMAX((X+Et+KM)−((((Et+X+KM)^2)−(4XEt))^0.5))/(2Et) wherein • Y is concentration of substrate turnover • X is substrate concentration • Et is DPPI concentration • KM is substrate concentration at ½ VMAX • VMAX is substrate turnover at substrate saturation
About 2 nM of DPPI was incubated with about 0.5, 1, 2, 4, 8, 16, 32, 64, 90, 128, 150 μM of the 20-mer substrate in the reaction buffer of 50 mM HEPES (pH 7.0), 100 mM NaCl, 0.005% Tween-20, and 2 mM of DTT or GSH. […]

B1: dipeptidyl peptidase I (DPPI) (Homo sapiens) (protein)
chain 1: not shown
chain 2: LPTSWDWRNVHGINFVSPVRNQASCGSCYSFASMGMLEARIRILTNNSQTPILSPQEVVSCSQYAQGCEGGFPYLIAGKYAQDFGLVEEACFPYTGTDSPCKMKEDCFRYYSSEYHYVGGFYGGCNEALMKLELVHHGPMAVAFEVYDDFLHYKKGIYHHTGLR
chain 3: not shown
notes: made in house; host or cells: Hi5 insect cells (baculovirus)
Km: 62 µM
